Data: publication PMC12404239

Target: CoV OC43 spike glycoprotein (S) (human coronavirus OC43) (UniProt P36334)
Test: […], running buffer TBS, […]

In the case of “CoV OC43 spike glycoprotein (S) (from UniProt P36334 14-1263) (natural protein)”, the stoichiometry N is reported as 3.
